Assay results taken from US20210101937A1 (Bicycle, published 2021).
*1 amine or outer side, *2 acyl side, *3 side chain or, on linkers, in order; H or OH if unused. Bridges are numbered along the chain shown (N, C = ends). Roman numbers before positions name the chains, in order. Where no end group is shown, it is not given here. [ ]: non-standard residue; d: D form. The star is where a group is joined. TATA = O=C(CC[*:1])N1CN(C(=O)CC[*:2])CN(C(=O)CC[*:3])C1; 1Nal = N[C@@H](Cc1cccc2ccccc12)C(=O)O; Hyp = O=C(O)[C@@H]1C[C@@H](O)CN1; hArg = N=C(N)NCCCC[C@H](N)C(=O)O; tBuAla = CC(C)(C)C[C@H](N)C(=O)O; Cysteamide = C(CS[*:3])N[*:1]; NMeA = CN[C@@H](C)C(=O)O; Nle = CCCC[C@H](N)C(=O)O; Pent4ynoyl = C#CCCC(=O)*; dNMeA = CN[C@H](C)C(=O)O; βAla = NCCC(=O)O; Mpa = O=C(O)CCS

B1: BCY12229 (peptide)
peptide 1: DXCSAGWLTMCQKLHLCPSH
peptide 2: CXPEXPYCFADPYXCA
modifications: Ac-C[tBuAla]PE[D-Lys(PYA)]PYCFADPY[Nle]CA; Cys residues bonded to TATA scaffold; [Ac]D[HArg]CSAGWLTMCQKLHLCPSH; Cys residues bonded to TATA scaffold
B2: BCY12234 (peptide)
peptide 1: AXDCXLVNPLCLHPDWXCK
peptide 2: CXPEKPYCFADPYXCA
modifications: Ac-C[tBuAla]PE[D-Lys]PYCFADPY[Nle]CA; Cys residues bonded to TATA scaffold; [Ac]A[HArg]DC[HyP]LVNPLCLHP[dD]W[HArg]CK(PYA); Cys residues bonded to TATA scaffold
B3: BCY12236 (peptide)
peptide 1: AXDCXKVNPLCLHPDWXC
peptide 2: CXPEKPYCFADPYXCA
modifications: Ac-C[tBuAla]PE[D-Lys]PYCFADPY[Nle]CA; Cys residues bonded to TATA scaffold; [Ac]A[HArg]DC[HyP]K(PYA)VNPLCLHP[dD]W[HArg]C; Cys residues bonded to TATA scaffold
B4: BCY12235 (peptide)
peptide 1: AXDCXLVNPLCLKPDWXC
peptide 2: CXPEKPYCFADPYXCA
modifications: Ac-C[tBuAla]PE[D-Lys]PYCFADPY[Nle]CA; Cys residues bonded to TATA scaffold; [Ac]A[HArg]DC[HyP]LVNPLCLK(PYA)P[dD]W[HArg]C; Cys residues bonded to TATA scaffold
B5: BCY12233 (peptide)
peptide 1: Pent4ynoyl-A[hArg]DC[Hyp]LVNPLCLHP[dD]W[hArg]C
peptide 2: Ac-C[tBuAla]PE[dK]PYCFADPY[Nle]CA
modifications: linker I:4-I:11-I:18, II:1-II:8-II:15 via TATA; linker II:N-II:5 via Peg5; also: two bicycles joined by Peg5 linker
B6: BCY12237 (peptide)
peptide 1: AXDCXLVNPLCKHPDWXC
peptide 2: CXPEKPYCFADPYXCA
modifications: Ac-C[tBuAla]PE[D-Lys]PYCFADPY[Nle]CA; Cys residues bonded to TATA scaffold; [Ac]A[HArg]DC[HyP]LVNPLCK(PYA)HP[dD]W[HArg]C; Cys residues bonded to TATA scaffold
B7: BCY12572 (peptide)
peptide 1: CPXDCMXDWSTPXWC
peptide 2: CXPEKPYCFADPYX
modifications: [Ac]C[tBuAla]PE[dK(PYA)]PYCFADPY[Nle][Cysteamine]; reactive groups bonded to TATA scaffold; CP[1Nal][dD]CM[HArg]DWSTP[HyP]WC; Cys residues bonded to TATA scaffold
B8: BCY12661 (peptide)
peptide 1: XPXDCMXDWSTPXWC
peptide 2: CXEEKPYCFADPYXCX
modifications: [Ac]C[tBuAla]EE(dK)PYCFADPY[Nle]C[Dap(PYA)]; carries the palmitic acid azide of Example 8 (palmitic acid, γGlu, Lys(N3)); Cys residues bonded to TATA scaffold; [PYA]CP[1Nal][dD]CM[HArg]DWSTP[HyP]WC; Cys residues bonded to TATA scaffold
B9: BCY12574 (peptide)
peptide 1: CP[1Nal][dD]CM[hArg]DWSTP[Hyp]WC
peptide 2: [Mpa][tBuAla]PE[dK](Pent4ynoyl)PYCFADPY[Nle]-Cysteamide
modifications: linker I:1-I:5-I:15 via TATA; numbers in words are those of the source; also: two bicycles joined by Peg5 linker, linker at chain B 7 to a chain's N/C-terminus via TATA
B10: BCY12578 (peptide)
peptide 1: XXKCMXDWSTPXX
peptide 2: CXPEXPYCFADPYXCA
modifications: Ac-C[tBuAla]PE[D-Lys(PYA)]PYCFADPY[Nle]CA; Cys residues bonded to TATA scaffold; [3-mercaptopropionic acid]P[1Nal][dK]CM[HArg]DWSTP[HyP]W[Cysteamine]; reactive groups bonded to TATA scaffold
B11: BCY11618 (peptide)
peptide 1: Pent4ynoyl-[βAla]CP[1Nal][dK]CM[hArg]DWSTP[Hyp]WC
peptide 2: Ac-C[tBuAla]PE[dK]PYCFADPY[Nle]CA
modifications: linker I:2-I:6-I:16, II:1-II:8-II:15 via TATA; linker II:N-II:5 via Peg5; not fully specified (some residues); also: palmitic acid on dK of chain 1
B12: BCY11776 (peptide)
peptide 1: CPXDCMXDWSTPXWC
peptide 2: CXPEKPYCFADPYXCX
modifications: not fully specified; [Ac]C[tBuAla]PE[dK]PYCFADPY[Nle]C[Dap(PYA)]; dK carries palmitic acid (Example 5); Cys residues bonded to TATA scaffold; CP[1Nal][dD]CM[HArg]DWSTP[HyP]WC; Cys residues bonded to TATA scaffold
B13: BCY12020 (peptide)
peptide 1: XCPXDCMXDWSTPXWC
peptide 2: CXPEKPYCFADPYXCX
modifications: [Ac]C[tBuAla]PE[dK]PYCFADPY[Nle]C[Dap(PYA)]; carries Palmitic acid-PEG10 (Example 7); Cys residues bonded to TATA scaffold; [PYA][B-Ala]CP[1Nal][dD]CM[HArg]DWSTP[HyP]WC; Cys residues bonded to TATA scaffold
B14: BCY12582 (peptide)
peptide 1: CP[1Nal][dA]CM[hArg]DWSTP[Hyp]WC
peptide 2: Ac-C[tBuAla]PE[dK](Pent4ynoyl)PYCFADPY[Nle]CA
modifications: linker I:1-I:5-I:15, II:1-II:8-II:15 via TATA; not fully specified (bridges); also: chain 1 N-terminus joined to chain 2 dLys(PYA) by Peg5 linker (heterotandem complex)
B15: BCY12576 (peptide)
peptide 1: XXKCMXDWSTPXWC
peptide 2: CXPEXPYCFADPYXCA
modifications: Ac-C[tBuAla]PE[D-Lys(PYA)]PYCFADPY[Nle]CA; Cys residues bonded to TATA scaffold; [3-mercaptopropionic acid]P[1Nal][dK]CM[HArg]DWSTP[HyP]WC; reactive groups bonded to TATA scaffold
B16: BCY11616 (peptide)
peptide 1: CPXDCMXDWSTPXWC
peptide 2: ACIEEKQYCFADPYXCA
modifications: Ac-ACIEE(D-K)(PYA)QYCFADPY(Nle)CA; Cys residues bonded to TATA scaffold; CP[1Nal][dD]CM[HArg]DWSTP[HyP]WC; Cys residues bonded to TATA scaffold
B17: BCY12710 (peptide)
peptide 1: CP[1Nal][dD]CM[hArg]DWSTP[Hyp]WC
peptide 2: Ac-C[tBuAla]PE[dK](Pent4ynoyl)PYCFAD[dNMeA]Y[Nle]C
modifications: linker I:1-I:5-I:15, II:1-II:8-II:15 via TATA; not fully specified (bridges); also: chain 1 N-terminus joined to chain 2 dLys(PYA) by Peg5 linker (heterotandem complex)
B18: BCY12577 (peptide)
peptide 1: CPXKCMXDWSTPXX
peptide 2: CXPEXPYCFADPYXCA
modifications: Ac-C[tBuAla]PE[D-Lys(PYA)]PYCFADPY[Nle]CA; Cys residues bonded to TATA scaffold; [Ac]CP[1Nal][dK]CM[HArg]DWSTP[HyP]W[Cysteamine]; reactive groups bonded to TATA scaffold
B19: BCY12581 (peptide)
peptide 1: CP[1Nal][dE]CM[hArg]DWSTP[Hyp]WC
peptide 2: Ac-C[tBuAla]PE[dK](Pent4ynoyl)PYCFADPY[Nle]CA
modifications: linker I:1-I:5-I:15, II:1-II:8-II:15 via TATA; not fully specified (bridges); also: chain 1 N-terminus joined to chain 2 dLys(PYA) by Peg5 linker (heterotandem complex)
B20: BCY12573 (peptide)
peptide 1: CP[1Nal][dD]CM[hArg]DWSTP[Hyp]WC
peptide 2: [Mpa][tBuAla]PE[dK](Pent4ynoyl)PYCFADPY[Nle]C
modifications: linker I:1-I:5-I:15 via TATA; numbers in words are those of the source; also: two bicycles joined by Peg5 linker, linker at chain B 7 at chain B 14 to a chain's N-terminus via TATA
B21: BCY12583 (peptide)
peptide 1: CP[1Nal][dE]CL[hArg]DWSTP[Hyp]WC
peptide 2: Ac-C[tBuAla]PE[dK](Pent4ynoyl)PYCFADPY[Nle]CA
modifications: linker I:1-I:5-I:15, II:1-II:8-II:15 via TATA; not fully specified (bridges); printed as CP[1Nal][dE]CL[HArg]DWSTP[HyP]WC / Ac-C[tBuAla]PE[D-Lys(PYA)]PYCFADPY[Nle]CA; also: chain 1 N-terminus joined to chain 2 dLys(PYA) by Peg5 linker (heterotandem complex)
B22: BCY12579 (peptide)
peptide 1: CPXKCMXHWSTPXWC
peptide 2: CXPEXPYCFADPYXCA
modifications: Ac-C[tBuAla]PE[D-Lys(PYA)]PYCFADPY[Nle]CA; Cys residues bonded to TATA scaffold; [Ac]CP[1Nal][dK]CM[HArg]HWSTP[HyP]WC; Cys residues bonded to TATA scaffold
B23: BCY11860 (peptide)
peptide 1: Pent4ynoyl-[βAla]CP[1Nal][dK]CM[hArg]DWSTP[Hyp]WC
peptide 2: Ac-C[tBuAla]PE[dK]PYCFADPY[Nle]CA
modifications: linker I:2-I:6-I:16, II:1-II:8-II:15 via TATA; linker II:N-II:5 via Peg5; also: two bicycles joined by Peg5 linker, further acylated with a reagent shown only in a drawing
B24: BCY12709 (peptide)
peptide 1: CP[1Nal][dD]CM[hArg]DWSTP[Hyp]WC
peptide 2: Ac-C[tBuAla]PE[dK](Pent4ynoyl)PYCFAD[NMeA]Y[Nle]C
modifications: linker I:1-I:5-I:15, II:1-II:8-II:15 via TATA; not fully specified (bridges); also: chain 1 N-terminus joined to chain 2 dLys(PYA) by Peg5 linker (heterotandem complex)
B25: BCY12379 (peptide)
peptide 1: CPXDCMXDWSTPXWC
peptide 2: CXPEKPYCFADPYXC
modifications: [Ac]C[tBuAla]PE[dK(PYA)]PYCFADPY[Nle]C; Cys residues bonded to TATA scaffold; CP[1Nal][dD]CM[HArg]DWSTP[HyP]WC; Cys residues bonded to TATA scaffold
B26: BCY12585 (peptide)
peptide 1: CP[1Nal][dE]CM[hArg]EWSTP[Hyp]WC
peptide 2: Ac-C[tBuAla]PE[dK](Pent4ynoyl)PYCFADPY[Nle]CA
modifications: linker I:1-I:5-I:15, II:1-II:8-II:15 via TATA; not fully specified (bridges); printed as CP[1Nal][dE]CM[HArg]EWSTP[HyP]WC / Ac-C[tBuAla]PE[D-Lys(PYA)]PYCFADPY[Nle]CA; also: chain 1 N-terminus joined to chain 2 dLys(PYA) by Peg5 linker (heterotandem complex)
B27: BCY12580 (peptide)
peptide 1: CPXKCMXEWSTPXWC
peptide 2: CXPEXPYCFADPYXCA
modifications: Ac-C[tBuAla]PE[D-Lys(PYA)]PYCFADPY[Nle]CA; Cys residues bonded to TATA scaffold; [Ac]CP[1Nal][dK]CM[HArg]EWSTP[HyP]WC; Cys residues bonded to TATA scaffold
B28: BCY12377 (peptide)
peptide 1: CPXDCMXDWSTPXWC
peptide 2: CXEEKPYCFADPYXC
modifications: [Ac]C[tBuAla]EE[dK(PYA)]PYCFADPY[Nle]C; Cys residues bonded to TATA scaffold; CP[1Nal][dD]CM[HArg]DWSTP[HyP]WC; Cys residues bonded to TATA scaffold

These binders were tested against T1, CD137 (UniProt Q07011 24-255, limits assumed) (assay: cell-based or functional assay).
T1 sequence (Q07011 24-255 limits assumed): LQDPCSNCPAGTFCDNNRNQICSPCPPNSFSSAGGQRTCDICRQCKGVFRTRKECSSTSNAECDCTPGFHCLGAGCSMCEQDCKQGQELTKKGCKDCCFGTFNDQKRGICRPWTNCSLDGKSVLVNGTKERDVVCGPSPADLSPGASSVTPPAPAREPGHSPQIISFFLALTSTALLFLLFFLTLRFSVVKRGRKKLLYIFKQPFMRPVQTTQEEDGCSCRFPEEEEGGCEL

Binder	EC50 [nM]	Fold Induction over background [fold over background]
B1	18	8

Molecular target: T1, CD137
Assay: cell-based or functional assay
Remark: another data set of the same source

Binder	Fold improvement in EC50 over BCY9173 on same plate [fold]	Fold improvement in Emax over BCY9173 on same plate [fold]
B2	1	0.8
B3	1.4	0.8
B4	1.1	0.8
B5	1	0.9
B6	1	0.8

Molecular target: T1, CD137
Assay: cell-based or functional assay
Remark: another data set of the same source

Binder	Fold improvement in EC50 over BCY10000 on same plate [fold]	Fold improvement in Emax over BCY10000 on same plate [fold]
B7	0.35	1.67
B8	0.34	0.5
B9	0.22	0.77
B10	0.05	0.93
B11	0.09	2.59
B12	0.05	0.07
B13	0.15	0.48
B14	1.69	1.32
B15	0.23	1.45
B16	0.21	1.22
B17	0.16	1.41
B18	0.25	1.06
B19	1.35	0.88
B20	0.74	1.34
B21	0.6	1.47
B22	0.29	1.07
B23	0.29	1.53
B24	0.08	2.15
B25	0.91	1.29
B26	1.31	1.5
B27	0.64	0.97
B28	0.78	1.37
